# Data taken from patent US20220290113.
Protein,in vitro DNA cleavage by the Nme1Cas9-Nme2Cas9PID chimera in the presence of Acr (10 uM Cas9-sgRNA + 100 uM Acr) (AcrIIC5Smu),in vitro DNA cleavage by Cas9 in the presence of Acr (10:1 Acr:Cas9 molar ratio) (AcrE2),in vitro DNA cleavage by Cas9 in the presence of Acr (10:1 Acr:Cas9 molar ratio) (AcrIIC1Nme),in vitro DNA cleavage by Cas9 in the presence of Acr (10:1 Acr:Cas9 molar ratio) (AcrIIC2Nme),in vitro DNA cleavage by Cas9 in the presence of Acr (10:1 Acr:Cas9 molar ratio) (AcrIIC3Nme),in vitro DNA cleavage by Cas9 in the presence of Acr (10:1 Acr:Cas9 molar ratio) (AcrIIC4Hpa),in vitro DNA cleavage by Cas9 in the presence of Acr (10:1 Acr:Cas9 molar ratio) (AcrIIC5Smu)
Nme1Cas9-Nme2Cas9PID chimera (Nme1Cas9 with its PID replaced by that of Nme2Cas9) (protein) MAAFKPNSINYILGLDIGIASVGWAMVEIDEEENPIRLIDLGVRVFERAEVPKTGDSLAMARRLARSVRRLTRRRAHRLLRTRRLLKREGVLQAANFDENGLIKSLPNTPWQLRAAALDRKLTPLEWSAVLLHLIKHRGYLSQRKNEGETADKELGALLKGVAGNAHALQTGDFRTPAELALNKFEKESGHIRNQRSDYSHTFSRKDLQAELILLFEKQKEFGNPHVSGGLKEGIETLLMTQRPALSGDAVQKMLGHCTFEPAEPKAAKNTYTAERFIWLTKLNNLRILEQGSERPLTDTERATLMDEPYRKSKLTYAQARKLLGLEDTAFFKGLRYGKDNAEASTLMEMKAYHAISRALEKEGLKDKKSPLNLSPELQDEIGTAFSLFKTDEDITGRLKDRIQPEILEALLKHISFDKFVQISLKALRRIVPLMEQGKRYDEACAEIYGDHYGKKNTEEKIYLPPIPADEIRNPVVLRALSQARKVINGVVRRYGSPARIHIETAREVGKSFKDRKEIEKRQEENRKDREKAAAKFREYFPNFVGEPKSKDILKLRLYEQQHGKCLYSGKEINLGRLNEKGYVEIDHALPFSRTWDDSFNNKVLVLGSENQNKGNQTPYEYFNGKDNSREWQEFKARVETSRFPRSKKQRILLQKFDEDGFKERNLNDTRYVNRFLCQFVADRMRLTGKGKKRVFASNGQITNLLRGFWGLRKVRAENDRHHALDAVVVACSTVAMQQKITRFVRYKEMNAFDGKTIDKETGEVLHQKTHFPQPWEFFAQEVMIRVFGKPDGKPEFEEADTLEKLRTLLAEKLSSRPEAVHEYVTPLFVSRAPNRKMSGAHKDTLRSAKRFVKHNEKISVKRVWLTEIKLADLENMVNYKNGREIELYEALKARLEAYGGNAKQAFDPKDNPFYKKGGQLVKAVRVEKTQESGVLLNKKNAYTIADNGDMVRVDVFCKVDKKGKNQYFIVPIYAWQVAENILPDIDCKGYRIDDSYTFCFSLHKYDLIAFQKDEKSKVEFAYYINCDSSNGRFYLAWHDKGSKEQQFRISTQNLVLIQKYQVNELGKEIRPCRLKKRPPVR,No inhibition was observed by AcrIIC5Smu on this protein chimera,,,,,,
"Nme1Cas9 (Cas9 of Neisseria meningitidis strain 8013), recombinant, purified from E. coli (protein) MAAFKPNSINYILGLDIGIASVGWAMVEIDEEENPIRLIDLGVRVFERAEVPKTGDSLAMARRLARSVRRLTRRRAHRLLRTRRLLKREGVLQAANFDENGLIKSLPNTPWQLRAAALDRKLTPLEWSAVLLHLIKHRGYLSQRKNEGETADKELGALLKGVAGNAHALQTGDFRTPAELALNKFEKESGHIRNQRSDYSHTFSRKDLQAELILLFEKQKEFGNPHVSGGLKEGIETLLMTQRPALSGDAVQKMLGHCTFEPAEPKAAKNTYTAERFIWLTKLNNLRILEQGSERPLTDTERATLMDEPYRKSKLTYAQARKLLGLEDTAFFKGLRYGKDNAEASTLMEMKAYHAISRALEKEGLKDKKSPLNLSPELQDEIGTAFSLFKTDEDITGRLKDRIQPEILEALLKHISFDKFVQISLKALRRIVPLMEQGKRYDEACAEIYGDHYGKKNTEEKIYLPPIPADEIRNPVVLRALSQARKVINGVVRRYGSPARIHIETAREVGKSFKDRKEIEKRQEENRKDREKAAAKFREYFPNFVGEPKSKDILKLRLYEQQHGKCLYSGKEINLGRLNEKGYVEIDHALPFSRTWDDSFNNKVLVLGSENQNKGNQTPYEYFNGKDNSREWQEFKARVETSRFPRSKKQRILLQKFDEDGFKERNLNDTRYVNRFLCQFVADRMRLTGKGKKRVFASNGQITNLLRGFWGLRKVRAENDRHHALDAVVVACSTVAMQQKITRFVRYKEMNAFDGKTIDKETGEVLHQKTHFPQPWEFFAQEVMIRVFGKPDGKPEFEEADTLEKLRTLLAEKLSSRPEAVHEYVTPLFVSRAPNRKMSGQGHMETVKSAKRLDEGVSVLRVPLTQLKLKDLEKMVNREREPKLYEALKARLEAHKDDPAKAFAEPFYKYDKAGNRTQQVKAVRVEQVQKTGVWVRNHNGIADNATMVRVDVFEKGDKYYLVPIYSWQVAKGILPDRAVVQGKDEEDWQLIDDSFNFKFSLHPNDLVEVITKKARMFGYFASCHRGTGNINIRIHDLDHKIGKNGILEGIGVKTALSFQKYQIDELGKEIRPCRLKKRPPVR",,AcrE2 failed to do so,all 5 families inhibited Nme1Cas9,all 5 families inhibited Nme1Cas9,all 5 families inhibited Nme1Cas9,all 5 families inhibited Nme1Cas9,all 5 families inhibited Nme1Cas9
"Recombinant Nme2Cas9 (Cas9 of Neisseria meningitidis strain Del1444), purified from E. coli (protein) PKKKRKVNAMAAFKPNPINYILGLDIGIASVGWAMVEIDEEENPIRLIDLGVRVFERAEVPKTGDSLAMARRLARSVRRLTRRRAHRLLRARRLLKREGVLQAADFDENGLIKSLPNTPWQLRAAALDRKLTPLEWSAVLLHLIKHRGYLSQRKNEGETADKELGALLKGVANNAHALQTGDFRTPAELALNKFEKESGHIRNQRGDYSHTFSRKDLQAELILLFEKQKEFGNPHVSGGLKEGIETLLMTQRPALSGDAVQKMLGHCTFEPAEPKAAKNTYTAERFIWLTKLNNLRILEQGSERPLTDTERATLMDEPYRKSKLTYAQARKLLGLEDTAFFKGLRYGKDNAEASTLMEMKAYHAISRALEKEGLKDKKSPLNLSSELQDEIGTAFSLFKTDEDITGRLKDRVQPEILEALLKHISFDKFVQISLKALRRIVPLMEQGKRYDEACAEIYGDHYGKKNTEEKIYLPPIPADEIRNPVVLRALSQARKVINGVVRRYGSPARIHIETAREVGKSFKDRKEIEKRQEENRKDREKAAAKFREYFPNFVGEPKSKDILKLRLYEQQHGKCLYSGKEINLVRLNEKGYVEIDHALPFSRTWDDSFNNKVLVLGSENQNKGNQTPYEYFNGKDNSREWQEFKARVETSRFPRSKKQRILLQKFDEDGFKECNLNDTRYVNRFLCQFVADHILLTGKGKRRVFASNGQITNLLRGFWGLRKVRAENDRHHALDAVVVACSTVAMQQKITRFVRYKEMNAFDGKTIDKETGKVLHQKTHFPQPWEFFAQEVMIRVFGKPDGKPEFEEADTPEKLRTLLAEKLSSRPEAVHEYVTPLFVSRAPNRKMSGAHKDTLRSAKRFVKHNEKISVKRVWLTEIKLADLENMVNYKNGREIELYEALKARLEAYGGNAKQAFDPKDNPFYKKGGQLVKAVRVEKTQESGVLLNKKNAYTIADNGDMVRVDVFCKVDKKGKNQYFIVPIYAWQVAENILPDIDCKGYRIDDSYTFCFSLHKYDLIAFQKDEKSKVEFAYYINCDSSNGRFYLAWHDKGSKEQQFRISTQNLVLIQKYQVNELGKEIRPCRLKKRPPVRGGGGSGGGGSGGGGSPAAKKKKLDGGGSKRPAATKKAGQAKKKK",,,completely inhibited Nme2Cas9,completely inhibited Nme2Cas9,completely inhibited Nme2Cas9,completely inhibited Nme2Cas9,did not inhibit Nme2Cas9 in vitro even at a 10-fold molar excess
